Assay results: publication PMC3118390, “PKC isoforms interact with and phosphorylate DNMT1” (BMC Biology, 2011)

T1: recombinant PKCζ (human, UniProt Q05513 1-592)
T1 construct: also called rec; PKCζ
T1 sequence (looked up): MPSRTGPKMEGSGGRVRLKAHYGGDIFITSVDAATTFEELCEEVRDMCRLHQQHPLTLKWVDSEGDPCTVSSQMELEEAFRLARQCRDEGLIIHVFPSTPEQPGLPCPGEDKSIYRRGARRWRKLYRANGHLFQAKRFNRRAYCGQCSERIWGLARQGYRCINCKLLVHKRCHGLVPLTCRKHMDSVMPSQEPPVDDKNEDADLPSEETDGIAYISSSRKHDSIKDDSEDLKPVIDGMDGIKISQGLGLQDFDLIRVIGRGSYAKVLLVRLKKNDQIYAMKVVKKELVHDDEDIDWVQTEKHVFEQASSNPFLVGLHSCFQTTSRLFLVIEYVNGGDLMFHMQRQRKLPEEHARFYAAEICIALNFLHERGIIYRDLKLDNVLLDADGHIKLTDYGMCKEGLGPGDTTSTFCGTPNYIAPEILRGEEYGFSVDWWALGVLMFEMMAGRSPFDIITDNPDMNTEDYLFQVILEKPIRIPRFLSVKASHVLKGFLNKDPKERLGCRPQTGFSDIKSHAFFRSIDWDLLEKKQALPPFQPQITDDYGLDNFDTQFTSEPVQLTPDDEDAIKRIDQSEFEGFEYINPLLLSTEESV

B1: GST fusion DNMT1 fragment 1374 to 1616 (domain or fragment, human, UniProt P26358 1374-1616, looked up)
chain: LPEVRNGASALEISYNGEPQSWFQRQLRGAQYQPILRDHICKDMSALVAARMRHIPLAPGSDWRDLPNIEVRLSDGTMARKLRYTHHDRKNGRSSSGALRGVCSCVEAGKACDPAARQFNTLIPWCLPHTGNRHNHWAGLYGRLEWDGFFSTTVTNPEPMGKQGRVLHPEQHRVVSVRECARSQGFPDTYRLFGNILDKHRQVGNAVPPPLAKAIGLEIKLCMLAKARESASAKIKEEEAAKD
notes: source: E. coli BL21, purified on glutathione-Sepharose beads
B2: GST fusion DNMT1 fragment 1 to 446 (domain or fragment, human, UniProt P26358 1-446, looked up)
chain: MPARTAPARVPTLAVPAISLPDDVRRRLKDLERDSLTEKECVKEKLNLLHEFLQTEIKNQLCDLETKLRKEELSEEGYLAKVKSLLNKDLSLENGAHAYNREVNGRLENGNQARSEARRVGMADANSPPKPLSKPRTPRRSKSDGEAKPEPSPSPRITRKSTRQTTITSHFAKGPAKRKPQEESERAKSDESIKEEDKDQDEKRRRVTSRERVARPLPAEEPERAKSGTRTEKEEERDEKEEKRLRSQTKEPTPKQKLKEEPDREARAGVQADEDEDGDEKDEKKHRSQPKDLAAKRRPEEKEPEKVNPQISDEKDEDEKEEKRRKTTPKEPTEKKMARAKTVMNSKTHPPKCIQCGQYLDDPDLKYGQHPPDAVDEPQMLTNEKLSIFDANESGFESYEALPQHKLTCFSVYCKHGHLCPIDTGLIEKNIELFFSGSAKPIYDDD
notes: DNA methyltransferase 1 (DNMT1), human, amino acids 1-446; also called N-terminal domain (amino acids 1-446) of DNMT1; source: E. coli BL21, purified on glutathione-Sepharose beads
B3: GST fusion DNMT1 fragment 1081 to 1409 (domain or fragment, human, UniProt P26358 1081-1409, looked up)
chain: NRFYFLEAYNAKSKSFEDPPNHARSPGNKGKGKGKGKGKPKSQACEPSEPEIEIKLPKLRTLDVFSGCGGLSEGFHQAGISDTLWAIEMWDPAAQAFRLNNPGSTVFTEDCNILLKLVMAGETTNSRGQRLPQKGDVEMLCGGPPCQGFSGMNRFNSRTYSKFKNSLVVSFLSYCDYYRPRFFLLENVRNFVSFKRSMVLKLTLRCLVRMGYQCTFGVLQAGQYGVAQTRRRAIILAAAPGEKLPLFPEPLHVFAPRACQLSVVVDDKKFVSNITRLSSGPFRTITVRDTMSDLPEVRNGASALEISYNGEPQSWFQRQLRGAQYQPIL
notes: as for B1

biological target: T1, recombinant PKCζ; test: pull-down; GST fusion DNMT1 fragments on glutathione beads, pre-incubated with 100 μg/ml BSA; 10 ng recombinant PKCζ, 4°C, one hour; binding buffer 50 mM Tris pH 7.5, 28 μM ZnCl2, 1% Triton X-100, 220 mM NaCl, 10% glycerol; washes with 500 mM NaCl; blot with a PKCζ antibody; conditions: both partners purified

| binding result | Binder |
| --- | --- |
| binds | B1 |
| binds | B2 |
| binds | B3 |
